Data from paper PMC5916898, “Global profiling of protein–DNA and protein–nucleosome binding affinities using quantitative mass spectrometry”.

Tests used:
Assay in all cases: pulldown; 150 mM NaCl, 50 mM Tris pH 8, 0.25% NP-40, 1 mM TCEP; 4 C, 2 h; 100 ug HeLa nuclear lysate
Conditions in all cases: protein: extract; label: 5' biotin (strand 1)
ZBTB43 = target: T1, ZBTB43 (Homo sapiens, UniProt O43298)
T1 sequence: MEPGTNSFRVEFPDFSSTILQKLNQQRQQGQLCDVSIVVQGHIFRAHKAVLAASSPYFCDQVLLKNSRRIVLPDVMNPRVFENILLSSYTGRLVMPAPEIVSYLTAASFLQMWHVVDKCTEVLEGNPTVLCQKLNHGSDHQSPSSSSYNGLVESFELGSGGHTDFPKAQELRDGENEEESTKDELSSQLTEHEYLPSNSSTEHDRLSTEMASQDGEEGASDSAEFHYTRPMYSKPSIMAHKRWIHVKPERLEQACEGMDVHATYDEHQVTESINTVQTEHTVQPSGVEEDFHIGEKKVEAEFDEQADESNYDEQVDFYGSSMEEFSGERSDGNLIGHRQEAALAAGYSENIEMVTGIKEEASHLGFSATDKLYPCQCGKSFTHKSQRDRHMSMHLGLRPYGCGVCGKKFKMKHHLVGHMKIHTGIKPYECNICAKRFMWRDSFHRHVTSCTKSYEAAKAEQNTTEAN

SP4 = SP4 (Homo sapiens, UniProt Q02446)
Sequence of SP4 (Q02446 whole entry): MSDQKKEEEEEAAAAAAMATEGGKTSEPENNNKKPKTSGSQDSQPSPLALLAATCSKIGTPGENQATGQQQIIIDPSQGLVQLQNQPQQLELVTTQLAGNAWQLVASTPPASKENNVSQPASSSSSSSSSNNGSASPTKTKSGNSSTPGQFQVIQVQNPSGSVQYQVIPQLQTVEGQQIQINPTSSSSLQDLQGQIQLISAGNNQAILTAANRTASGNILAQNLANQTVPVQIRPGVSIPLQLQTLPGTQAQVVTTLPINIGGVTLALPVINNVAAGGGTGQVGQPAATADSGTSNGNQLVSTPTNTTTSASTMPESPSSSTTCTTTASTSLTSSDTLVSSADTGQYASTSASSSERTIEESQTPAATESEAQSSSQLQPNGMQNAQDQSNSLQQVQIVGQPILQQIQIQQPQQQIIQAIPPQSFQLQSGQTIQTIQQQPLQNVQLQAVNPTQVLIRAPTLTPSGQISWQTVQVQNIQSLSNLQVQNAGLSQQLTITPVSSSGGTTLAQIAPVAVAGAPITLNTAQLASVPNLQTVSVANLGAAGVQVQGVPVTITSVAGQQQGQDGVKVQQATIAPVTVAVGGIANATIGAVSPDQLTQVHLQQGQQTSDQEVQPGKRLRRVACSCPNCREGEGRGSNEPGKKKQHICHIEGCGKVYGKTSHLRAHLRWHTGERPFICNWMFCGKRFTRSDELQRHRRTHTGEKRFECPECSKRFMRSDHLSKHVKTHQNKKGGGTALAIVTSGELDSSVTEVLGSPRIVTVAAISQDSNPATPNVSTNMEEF

YY1 = YY1 (Homo sapiens, UniProt P25490)
Sequence of YY1 (P25490 whole entry): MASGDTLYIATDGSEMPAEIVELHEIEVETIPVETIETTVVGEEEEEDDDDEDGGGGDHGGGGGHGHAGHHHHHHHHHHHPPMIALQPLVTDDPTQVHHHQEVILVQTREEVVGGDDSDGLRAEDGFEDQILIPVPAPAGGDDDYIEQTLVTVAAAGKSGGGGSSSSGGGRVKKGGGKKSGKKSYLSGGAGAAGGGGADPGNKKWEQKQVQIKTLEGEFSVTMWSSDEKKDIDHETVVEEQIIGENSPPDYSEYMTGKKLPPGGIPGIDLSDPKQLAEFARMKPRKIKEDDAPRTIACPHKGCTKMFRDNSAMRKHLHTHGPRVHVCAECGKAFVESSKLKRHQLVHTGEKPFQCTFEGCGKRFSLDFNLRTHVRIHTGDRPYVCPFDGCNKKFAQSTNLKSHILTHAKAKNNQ

GLIS2 = target: T2, GLIS2 (Homo sapiens, UniProt Q9BZE0)
T2 sequence: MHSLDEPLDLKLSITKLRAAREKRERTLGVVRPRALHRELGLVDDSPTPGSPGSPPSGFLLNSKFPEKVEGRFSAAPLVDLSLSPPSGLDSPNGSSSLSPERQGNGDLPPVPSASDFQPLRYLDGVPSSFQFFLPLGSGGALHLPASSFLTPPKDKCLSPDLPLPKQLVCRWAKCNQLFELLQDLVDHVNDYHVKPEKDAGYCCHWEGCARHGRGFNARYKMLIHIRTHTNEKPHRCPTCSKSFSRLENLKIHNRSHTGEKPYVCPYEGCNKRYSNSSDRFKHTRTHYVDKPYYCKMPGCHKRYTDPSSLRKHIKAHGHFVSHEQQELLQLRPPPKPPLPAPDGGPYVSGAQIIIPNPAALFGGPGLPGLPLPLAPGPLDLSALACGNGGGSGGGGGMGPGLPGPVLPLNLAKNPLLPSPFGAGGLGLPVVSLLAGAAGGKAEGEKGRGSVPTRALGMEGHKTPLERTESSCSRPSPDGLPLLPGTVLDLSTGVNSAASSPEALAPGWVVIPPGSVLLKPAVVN

ZNF24 = ZNF24 (Homo sapiens, UniProt P17028)
Sequence of ZNF24 (P17028 whole entry): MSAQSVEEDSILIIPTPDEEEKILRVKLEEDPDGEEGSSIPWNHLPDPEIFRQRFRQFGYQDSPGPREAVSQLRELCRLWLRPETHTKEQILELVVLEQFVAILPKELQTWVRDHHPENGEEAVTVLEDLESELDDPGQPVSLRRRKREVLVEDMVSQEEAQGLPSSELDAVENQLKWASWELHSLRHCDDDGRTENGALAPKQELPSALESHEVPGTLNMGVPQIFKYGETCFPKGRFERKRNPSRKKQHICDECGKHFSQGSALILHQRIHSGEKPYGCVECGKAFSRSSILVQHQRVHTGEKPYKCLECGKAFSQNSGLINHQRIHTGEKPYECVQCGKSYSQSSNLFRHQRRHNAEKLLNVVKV

TEAD4 = TEAD4 (Homo sapiens, UniProt Q15561)
Sequence of TEAD4 (Q15561 whole entry): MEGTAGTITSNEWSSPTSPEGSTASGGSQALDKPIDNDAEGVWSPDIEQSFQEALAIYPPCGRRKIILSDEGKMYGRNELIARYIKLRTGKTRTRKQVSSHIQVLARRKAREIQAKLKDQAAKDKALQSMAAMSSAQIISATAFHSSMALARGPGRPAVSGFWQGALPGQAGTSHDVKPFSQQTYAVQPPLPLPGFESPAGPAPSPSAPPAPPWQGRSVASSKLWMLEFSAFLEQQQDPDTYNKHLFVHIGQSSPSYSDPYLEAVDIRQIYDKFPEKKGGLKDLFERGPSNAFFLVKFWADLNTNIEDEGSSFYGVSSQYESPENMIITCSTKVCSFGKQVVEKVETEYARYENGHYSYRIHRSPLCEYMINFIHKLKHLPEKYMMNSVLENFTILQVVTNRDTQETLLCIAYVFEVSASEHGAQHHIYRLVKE

Binder | apparent K (half saturation) (ZBTB43) [nM] | apparent K (half saturation) (SP4) [nM] | apparent K (half saturation) (YY1) [nM] | apparent K (half saturation) (GLIS2) [nM] | apparent K (half saturation) (ZNF24) [nM] | apparent K (half saturation) (TEAD4) [nM]
CTCF (dsDNA) DNA 1: TCAGAGTGGCGGCCAGCAGGGGGCGCCCTTGCCAGA DNA 2: TCTGGCAAGGGCGCCCCCTGCTGGCCGCCACTCTGA | 347 | 41.3 | 400 | 15 | 388 | –
TEAD (dsDNA) DNA 1: TCGGGACCCAGGCCTGGAATGTTTCCACC DNA 2: GGTGGAAACATTCCAGGCCTGGGTCCCGA | – | – | – | – | – | 15.3
